Values belong to the sequence of their own block, whether it stands above or below them.
Assays:
HLA-B*07:02 [1] = assay: IEDB peptide-MHC binding, purified MHC/competitive/fluorescence; filed as Kd, often an IC50 or EC50 that approximates it; ≥ and ≤ were set here for values at or beyond the usual limits of such assays
HLA-A*11:01 [2] = assay: as above
HLA-A*68:23 = assay: as above; settings: source organism: Brucella canis ATCC 23365
HLA-A*30:02 [3] = assay: as above
HLA-B*40:01 = assay: as above
HLA-A*23:01 = assay: as above
HLA-B*08:01 = assay: as above
HLA-B*53:01 = assay: as above
HLA-B*58:01 [4] = assay: as above
HLA-B*39:01 [5] = assay: as above; settings: source organism: Brucella canis ATCC 23365
HLA-B*44:02 = assay: as above
HLA-B*83:01 = assay: as above; settings: source organism: Brucella canis ATCC 23365
HLA-A*30:01 = assay: as above
HLA-A*01:01 [6] = assay: as above
HLA-B*14:02 = assay: as above
HLA-A*24:03 = assay: as above; settings: source organism: Brucella canis ATCC 23365
HLA-B*45:06 = assay: as above; settings: source organism: Brucella canis ATCC 23365
HLA-B*15:42 = assay: as above; settings: source organism: Brucella canis ATCC 23365
HLA-A*03:01 = assay: IEDB peptide-MHC binding, purified MHC/direct/fluorescence; filed as Kd, often an IC50 or EC50 that approximates it; ≥ and ≤ were set here for values at or beyond the usual limits of such assays
HLA-B*57:01 = assay: as above
HLA-B*27:03 = assay: as above; settings: source organism: Brucella suis 1330
HLA-B*46:01 = assay: as above; settings: source organism: Brucella suis 1330
HLA-B*18:01 = assay: as above
HLA-B*51:01 = assay: as above; settings: source organism: Brucella suis 1330
HLA-A*66:01 [7] = assay: as above; settings: source organism: Brucella suis 1330
HLA-A*29:02 = assay: as above; settings: source organism: Brucella suis 1330
HLA-B*15:01 [8] = assay: as above
HLA-A*68:02 = assay: as above
HLA-A*30:02 [9] = assay: IEDB peptide-MHC binding, purified MHC/competitive/radioactivity; filed as Kd, often an IC50 or EC50 that approximates it; ≥ and ≤ were set here for values at or beyond the usual limits of such assays; settings: source organism: Dengue virus 1 Brazil/97-11/1997
HLA-B*58:01 [10] = assay: as above; settings: source organism: Dengue virus 1 Brazil/97-11/1997
HLA-A*80:01 = assay: IEDB peptide-MHC binding, purified MHC/direct/fluorescence; filed as Kd, often an IC50 or EC50 that approximates it; ≥ and ≤ were set here for values at or beyond the usual limits of such assays; settings: source organism: Dengue virus 1 Singapore/S275/1990
HLA-B*07:02 [11] = assay: as above; settings: source organism: Bacillus anthracis
HLA-A*11:01 [12] = assay: as above; settings: source organism: Bacillus anthracis
HLA-B*15:17 = assay: as above; settings: source organism: Bacillus anthracis
HLA-A*26:03 = assay: as above; settings: source organism: Bacillus cereus H3081.97
HLA-A*69:01 = assay: as above; settings: source organism: Bacillus anthracis
HLA-B*58:01 [13] = assay: as above; settings: source organism: Bacillus anthracis
HLA-B*39:01 [14] = assay: as above; settings: source organism: Bacillus cereus H3081.97
HLA-A*26:02 = assay: as above; settings: source organism: Bacillus cereus H3081.97
HLA-A*02:01 = assay: as above; settings: source organism: Bacillus anthracis
HLA-A*01:01 [15] = assay: as above; settings: source organism: Bacillus anthracis
HLA-A*31:01 = assay: as above; settings: source organism: Bacillus anthracis
HLA-B*73:01 = assay: as above; settings: source organism: Bacillus anthracis
HLA-B*27:05 [16] = assay: as above; settings: source organism: Bacillus anthracis
HLA-B*48:01 = assay: as above; settings: source organism: Bacillus anthracis
HLA-A*66:01 [17] = assay: IEDB peptide-MHC binding, purified MHC/competitive/fluorescence; filed as Kd, often an IC50 or EC50 that approximates it; ≥ and ≤ were set here for values at or beyond the usual limits of such assays; settings: source organism: Escherichia coli 536
HLA-B*15:01 [18] = assay: as above; settings: source organism: Escherichia coli 536
HLA-B*27:05 [19] = assay: as above; settings: source organism: Escherichia coli 536
[20] = source organism: Brucella canis ATCC 23365
[21] = source organism: Brucella suis 1330
[22] = source organism: Bacillus anthracis
[23] = source organism: Escherichia coli 536

Sequence: ETVWPFFYA
Kd (HLA-B*07:02 [1]; [20]): ≥ 5 µM | Kd (HLA-A*11:01 [2]; [20]): ≥ 5 µM | Kd (HLA-A*68:23): 0.0013 µM | Kd (HLA-A*30:02 [3]; [20]): ≥ 5 µM | Kd (HLA-B*40:01; [20]): ≥ 5 µM | Kd (HLA-A*23:01; [20]): ≥ 5 µM | Kd (HLA-B*08:01; [20]): ≥ 5 µM | Kd (HLA-B*53:01; [20]): ≥ 5 µM | Kd (HLA-B*58:01 [4]; [20]): ≥ 5 µM | Kd (HLA-B*39:01 [5]): ≥ 5 µM | Kd (HLA-B*44:02; [20]): ≥ 5 µM | Kd (HLA-B*83:01): ≥ 5 µM | Kd (HLA-A*30:01; [20]): ≥ 5 µM | Kd (HLA-A*01:01 [6]; [20]): ≥ 5 µM | Kd (HLA-B*14:02; [20]): ≥ 5 µM | Kd (HLA-A*24:03): ≥ 5 µM | Kd (HLA-B*45:06): ≥ 5 µM | Kd (HLA-B*15:42): ≥ 5 µM | Kd (HLA-A*03:01; [21]): ≥ 20 µM | Kd (HLA-B*57:01; [21]): ≥ 20 µM | Kd (HLA-B*27:03): ≥ 20 µM | Kd (HLA-B*46:01): ≥ 20 µM | Kd (HLA-B*18:01; [21]): ≥ 20 µM | Kd (HLA-B*51:01): ≥ 20 µM | Kd (HLA-A*66:01 [7]): 0.101 µM | Kd (HLA-A*29:02): ≥ 20 µM | Kd (HLA-B*15:01 [8]; [21]): ≥ 20 µM | Kd (HLA-A*68:02; [21]): ≤ 0.001 µM

Sequence: KSAAIDGEY
Kd (HLA-A*30:02 [9]): 0.703 µM | Kd (HLA-B*58:01 [10]): 0.00658 µM | Kd (HLA-A*80:01): 0.0441 µM

Sequence: PRFGSCYFL
Kd (HLA-A*03:01; [22]): ≥ 20 µM | Kd (HLA-B*57:01; [22]): ≥ 20 µM | Kd (HLA-B*07:02 [11]): 2.72 µM | Kd (HLA-A*11:01 [12]): ≥ 20 µM | Kd (HLA-B*15:17): ≥ 20 µM | Kd (HLA-A*26:03): ≥ 20 µM | Kd (HLA-B*18:01; [22]): ≥ 20 µM | Kd (HLA-A*69:01): ≥ 20 µM | Kd (HLA-B*58:01 [13]): ≥ 20 µM | Kd (HLA-B*39:01 [14]): ≥ 20 µM | Kd (HLA-A*26:02): ≥ 20 µM | Kd (HLA-A*02:01): ≥ 20 µM | Kd (HLA-A*01:01 [15]): ≥ 20 µM | Kd (HLA-A*31:01): ≥ 20 µM | Kd (HLA-B*73:01): ≥ 20 µM | Kd (HLA-B*15:01 [8]; [22]): ≥ 20 µM | Kd (HLA-A*68:02; [22]): ≥ 20 µM | Kd (HLA-B*27:05 [16]): ≥ 20 µM | Kd (HLA-B*48:01): ≥ 20 µM

Kd (HLA-B*07:02 [1]; [23]): ≥ 5 µM | Kd (HLA-A*11:01 [2]; [23]): ≥ 5 µM | Kd (HLA-A*30:02 [3]; [23]): ≥ 5 µM | Kd (HLA-B*40:01; [23]): ≥ 5 µM | Kd (HLA-A*23:01; [23]): ≥ 5 µM | Kd (HLA-B*08:01; [23]): ≥ 5 µM | Kd (HLA-B*53:01; [23]): ≥ 5 µM | Kd (HLA-B*58:01 [4]; [23]): ≥ 5 µM | Kd (HLA-B*44:02; [23]): ≥ 5 µM | Kd (HLA-A*30:01; [23]): ≥ 5 µM | Kd (HLA-A*66:01 [17]): ≥ 5 µM | Kd (HLA-A*01:01 [6]; [23]): ≥ 5 µM | Kd (HLA-B*15:01 [18]): ≥ 5 µM | Kd (HLA-B*14:02; [23]): ≥ 5 µM | Kd (HLA-B*27:05 [19]): ≥ 5 µM
Sequence: YQAENSTAE

Source: the Immune Epitope Database (IEDB)
